Results as given in article PMC3072847 (Biochemistry, 2011).

Molecular target: T1, CusB (E. coli, UniProt P77239 29-407)
T1 sequence (looked up): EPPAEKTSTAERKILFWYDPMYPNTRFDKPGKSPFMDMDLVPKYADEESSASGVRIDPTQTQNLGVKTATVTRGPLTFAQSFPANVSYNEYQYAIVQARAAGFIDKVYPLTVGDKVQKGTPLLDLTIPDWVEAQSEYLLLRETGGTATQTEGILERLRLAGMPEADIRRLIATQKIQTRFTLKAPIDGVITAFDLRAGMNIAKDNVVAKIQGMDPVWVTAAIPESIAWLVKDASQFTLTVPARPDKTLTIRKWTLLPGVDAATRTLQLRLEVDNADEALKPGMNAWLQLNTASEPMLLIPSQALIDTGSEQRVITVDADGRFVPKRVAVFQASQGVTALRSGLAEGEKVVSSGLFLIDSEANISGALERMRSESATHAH
Test: NMR 15N relaxation

Kd: ~160 µM
B1: CusF (natural protein, E. coli, UniProt P77214 22-110, looked up)
chain: ANEHHHETMSEAQPQVISATGVVKGIDLESKKITIHHDPIAAVNWPEMTMRFTITPQTKMSEIKTGDKVAFNFVQQGNLSLLQDIKVSQ
